Laboratory results published in patent publication US20230090487A1 (published 2023).
Numbering of substitutions follows the chain as printed.

B1: hLAAIGE H6.2 (antibody, human IgG1, lambda, V domains shown)
VH: QVQLGQSGGGVVQPGRSLRLSCAASGFTFSNYLIEWVRQAPGKGLEWVAVINPGSGFTKYNEKFKQRFTISRDNSKNTLYLQMNSLRAEDTAVYYCAREDVYSWFAYWGQGTLVTVSA
VL: QSALTQPASVSGSPGQSITISCTRASESVDSYGNSFMHQHHPGKAPKLMIYEVRTSNLESSNRFSGSKSGNTASLTISGLQAEDEADYYCSSQQSYEDPFTFGSGTKLGQPK
notes: The entries are labelled 'VH' and 'VL' but are full heavy (human IgG1) and lambda light chains; Humanized, derived from Founder P6.2
B2: Founder P6.2 (low affinity anti-human IgE founder mouse mAb) (antibody, V domains shown)
VH: QVQLQQSGAELVRPGTSVKVSCKASGYAFTNYLIEWVKQRPGQGLEWIGVINPGSGFTKYNEKFKGKATLTADKSSSTAYMHLSSLTSDDSAVYFCAREDVYSWFAYWGQGTLVTVSA
VL: DIVLTQSPASLAVSLGQRATISCRASESVDSYGNSFMHWYQQKPGQPPKLLIYRTSNLESGIPARFSGSGSRTDFTLTINPVEADDVATYFCQQSYEDPFTFGSGTKLEIK
notes: Mouse hybridoma mAb
B3: hLAAIGE E14 (antibody, human IgG1, kappa, V domains shown)
VH: QVQLVQSGSELKKPGASVKVSCKASGYTFTNYGMNWVRQAPGQGLEWMGWINTYTGEPTYADDFKGRFVFSLDTSVSTAYLQISSLKAEDTAVYYCARGAASHTMDYWGQGTTVTVSS
VL: DIVMTQSPDSLAVSLGERATINCRASQSVSTSAHSYMHWYQQKPGQPPKLLIYYASNLESGVPDRFSGSGSGTDFTLTISSLQAEDVAVYYCQHSWEIPWTFGQGTKLEIKR
notes: The entries are labelled 'VH' and 'VL' but are full heavy (human IgG1) and kappa light chains; Humanized, derived from Founder E17
B4: hLAAIGE E17 (antibody, human IgG1, kappa, V domains shown)
VH: B3 VH
VL: B3 VL with A33S, S35A
notes: Humanized clone E17, a different molecule from the mouse Founder E17; The entries are labelled 'VH' and 'VL' but are full heavy (human IgG1) and kappa light chains
B5: hLAAIGE E23 (antibody, human IgG1, kappa, V domains shown)
VH: B3 VH
VL: B3 VL with A33S, H34Y, E59K, S60A
notes: as for B3
B6: hLAAIGE E59 (antibody, human IgG1, kappa, V domains shown)
VH: B3 VH
VL: B3 VL with A33S
notes: Humanized, derived from Founder E17; Expressed in 293 cells
B7: hLAAIGE S91 (antibody, human IgG1, lambda, V domains shown)
VH: QVQLVQSGAEVKKPGASVKVSCKASGYTFTSYGISWVRQAPGQGLEWMGWISAYNGNTNYAQKLQGRVTMTTDTSTSTAYMELRSLRSDDTAVYYCARVSSWPYWYFDLWGRGTLVTVSS
VL: QSAVTQPPSASGSPGQSVTISCTGTSSDVGAYDYVSWYQQHPGKAPKLMIYEVSKRPSGVPDRFSGSKSGNTASLTVSGLQAEDEADYYCSSYAGRVDVFGGGTKLTVLG
notes: The entries are labelled 'VH' and 'VL' but are full heavy (human IgG1) and lambda light chains; Humanized, derived from Founder F11

Tests used:
human IgE (myeloma IgE) [1] = molecular target: T1, human IgE (myeloma IgE) (human, UniProt P01854-1 1-428); test: SPR (Biacore method); range told of the group, this end tied to H6.2 by paragraph 147
T1 construct: Myeloma IgE coupled by amine coupling to a CM5 chip for Biacore; Also used to sensitize human FcεRIα-expressing 3D10 cells; also called PS IgE
Protocol: (§1) The complementary determining region (CDR) sequences and the specificity-determining residues (SDR) of each heavy chain variable (VH) and light chain variable (VL) regions were engrafted into the framework (FR) regions of the most homologous human germline sequences. All the recombinant mAbs were transiently expressed in 293 cells in small scale (50 ml transfection volume) and purified by protein A affinity column for downstream application. The humanized mAbs not expressing or expressing <1 μg/ml recombinant antibody were eliminated. The affinity of humanized LAAIGE (hLAAIGE) to […] was determined by the surface plasmon resonance using Biacore T2000 instrument (Biacore AB, Uppsala, Sweden) with a CM5 sensor chip coupled with myeloma IgE by amine coupling. The purified hLAAIGEs were dissolved in HBS-EP assay buffer containing 0.15 M NaCl, 10 mM HEPES, pH 7.4, 3 mM EDTA, and 0.005% polysorbate 20. The solutions traversed the sensors at a flow rate of 50 μl/minute for binding analysis. Binding results were expressed in resonance units. Kinetic studies were analyzed with BIAevaluation Software Version 4.1. […] The binding of the selected hLAAIGE to the cell surface-bound IgE was confirmed using the human FcεRIα expressing 3D10 cells sensitized with myeloma IgE.

human IgE (myeloma IgE) [2] = molecular target: T1, human IgE (myeloma IgE); test: SPR, Biacore T2000, myeloma IgE amine-coupled to CM5 chip, antibody in solution
Protocol: as §1

human IgE (myeloma IgE) [3] = molecular target: T1, human IgE (myeloma IgE); test: binding affinity for human IgE; method not stated for the founders
human IgE (myeloma IgE) [4] = molecular target: T1, human IgE (myeloma IgE); test: SPR (Biacore method); range told of the group, this end tied to E14 by paragraph 147
Protocol: as §1

human IgE (myeloma IgE) [5] = molecular target: T1, human IgE (myeloma IgE); test: SPR, Biacore T2000; range told of the chosen antibodies, this end tied to S91 by paragraph 147
Protocol: as §1

T1 sequence (P01854 other isoform, or with tags, fused parts or gaps): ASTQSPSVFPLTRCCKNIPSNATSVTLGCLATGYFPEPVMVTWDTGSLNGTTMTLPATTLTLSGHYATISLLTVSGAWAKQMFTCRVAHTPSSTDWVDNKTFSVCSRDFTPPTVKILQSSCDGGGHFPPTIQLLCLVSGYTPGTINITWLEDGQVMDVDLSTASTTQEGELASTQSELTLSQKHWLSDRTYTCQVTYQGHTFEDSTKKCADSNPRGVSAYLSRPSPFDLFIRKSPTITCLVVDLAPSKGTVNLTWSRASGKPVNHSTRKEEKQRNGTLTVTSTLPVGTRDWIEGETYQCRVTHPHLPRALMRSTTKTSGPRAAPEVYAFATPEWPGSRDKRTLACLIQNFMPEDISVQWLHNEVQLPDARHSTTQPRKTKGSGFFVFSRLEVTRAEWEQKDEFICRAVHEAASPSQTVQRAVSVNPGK

| Binder | Kd (human IgE (myeloma IgE) [2]) [nM] | also measured |
| --- | --- | --- |
| B1 | ~50000 | Kd (human IgE (myeloma IgE) [1]): 50 µM |
| B2 | – | Kd (human IgE (myeloma IgE) [3]): ~2540 nM |
| B3 | 67.2 | Kd (human IgE (myeloma IgE) [4]): 70 nM |
| B4 | 140 | – |
| B5 | 109 | – |
| B6 | 164 | – |
| B7 | 7410 | Kd (human IgE (myeloma IgE) [5]): 7 µM |
